Measured values reported in EP0662514A1.

Key:
[1] = molecular target: Chymotrypsin (bovine) (Bovine) (UniProt P00766); experiment: cell-based or functional assay
[2] = molecular target: Trypsin (bovine) (Bovine) (UniProt P00760); experiment: cell-based or functional assay
[3] = molecular target: Factor Xa (human) (Human) (UniProt P00742); experiment: cell-based or functional assay
[4] = molecular target: Chymotrypsin (bovine) (Bovine) (UniProt P00766); experiment: enzyme inhibition at equilibrium, apparent Ki from fit to the tight binding inhibitor equation
[5] = molecular target: Cathepsin G (human) (Human) (UniProt P08311); experiment: as above
Chain of UniProt P08311 (P08311 21-244 limits assumed): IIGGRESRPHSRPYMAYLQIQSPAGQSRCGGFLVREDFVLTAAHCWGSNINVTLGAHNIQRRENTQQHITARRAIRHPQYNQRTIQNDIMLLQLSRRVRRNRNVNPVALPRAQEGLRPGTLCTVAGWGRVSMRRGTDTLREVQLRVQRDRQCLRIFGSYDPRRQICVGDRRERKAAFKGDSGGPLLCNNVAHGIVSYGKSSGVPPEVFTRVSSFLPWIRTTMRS

[6] = molecular target: Trypsin (bovine) (Bovine) (UniProt P00760); experiment: as above
[7] = molecular target: Tissue kallikrein (porcine) (Porcine) (UniProt P00752); experiment: as above
Chain of UniProt P00752 (P00752 8-246 limits assumed): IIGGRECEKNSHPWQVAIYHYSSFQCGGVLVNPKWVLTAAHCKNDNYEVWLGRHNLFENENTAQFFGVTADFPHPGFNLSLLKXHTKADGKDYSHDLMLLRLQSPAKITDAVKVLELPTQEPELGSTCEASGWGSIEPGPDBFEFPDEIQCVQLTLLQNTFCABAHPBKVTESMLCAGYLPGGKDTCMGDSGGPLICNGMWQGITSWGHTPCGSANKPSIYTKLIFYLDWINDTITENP

Plasmin (human) (Human) = Plasmin (human) (Human) (UniProt P00747); experiment: as above
Chain of UniProt P00747 (P00747 97-810 limits assumed): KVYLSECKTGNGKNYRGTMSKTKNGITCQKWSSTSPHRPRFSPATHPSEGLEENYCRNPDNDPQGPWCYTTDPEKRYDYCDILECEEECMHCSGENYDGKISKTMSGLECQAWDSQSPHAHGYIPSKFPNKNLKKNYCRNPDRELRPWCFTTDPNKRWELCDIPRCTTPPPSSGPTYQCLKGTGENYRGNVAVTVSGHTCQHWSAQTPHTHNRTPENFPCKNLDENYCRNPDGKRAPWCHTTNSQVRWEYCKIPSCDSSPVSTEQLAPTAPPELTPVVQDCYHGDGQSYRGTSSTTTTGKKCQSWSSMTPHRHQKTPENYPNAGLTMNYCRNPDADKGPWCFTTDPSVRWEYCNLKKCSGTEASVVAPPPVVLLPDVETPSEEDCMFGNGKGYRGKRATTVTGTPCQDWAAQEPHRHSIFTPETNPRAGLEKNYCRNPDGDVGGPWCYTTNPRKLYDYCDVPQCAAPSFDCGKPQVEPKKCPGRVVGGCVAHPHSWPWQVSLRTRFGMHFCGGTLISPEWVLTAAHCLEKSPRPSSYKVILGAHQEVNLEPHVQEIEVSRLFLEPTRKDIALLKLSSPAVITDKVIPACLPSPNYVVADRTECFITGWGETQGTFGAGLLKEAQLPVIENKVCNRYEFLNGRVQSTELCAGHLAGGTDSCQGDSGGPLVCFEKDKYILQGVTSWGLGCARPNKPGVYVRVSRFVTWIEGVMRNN

Chain of UniProt P00760 (P00760 24-246): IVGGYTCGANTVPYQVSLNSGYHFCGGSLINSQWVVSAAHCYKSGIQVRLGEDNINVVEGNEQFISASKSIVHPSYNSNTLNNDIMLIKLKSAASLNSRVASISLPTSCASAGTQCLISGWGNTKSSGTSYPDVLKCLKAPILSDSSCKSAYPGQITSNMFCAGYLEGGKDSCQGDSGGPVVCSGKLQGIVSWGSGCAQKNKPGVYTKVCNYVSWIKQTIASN
Chain of UniProt P00742 (P00742 41-488 limits assumed): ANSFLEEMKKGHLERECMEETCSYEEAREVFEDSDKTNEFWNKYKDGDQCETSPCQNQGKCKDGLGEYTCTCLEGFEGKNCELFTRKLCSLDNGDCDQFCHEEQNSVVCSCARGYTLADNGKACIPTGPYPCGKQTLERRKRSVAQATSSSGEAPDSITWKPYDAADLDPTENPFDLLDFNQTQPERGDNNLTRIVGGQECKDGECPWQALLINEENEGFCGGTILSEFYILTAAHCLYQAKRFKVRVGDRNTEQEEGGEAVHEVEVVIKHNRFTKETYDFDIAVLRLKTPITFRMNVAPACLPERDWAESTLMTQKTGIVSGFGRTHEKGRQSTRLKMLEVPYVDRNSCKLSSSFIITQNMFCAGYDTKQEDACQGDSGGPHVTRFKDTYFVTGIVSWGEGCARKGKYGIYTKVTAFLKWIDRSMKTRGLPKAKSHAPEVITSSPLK

SA [IU/mg] (specific inhibitory activity against chymotrypsin, Mono S pool) [1]: 0.15 IU/mg | SA [IU/mg] (specific inhibitory activity against trypsin, Mono S pool) [2]: 2.7 IU/mg | Partial Thromboplastin Time, hirustasin at 1.3 mM; buffer 47.3 s [3]: 47.9 s | Quick (prothrombin time), hirustasin at 1.3 mM; buffer 79 % [3]: 80% | Ki [4]: 6.4 nM | Ki [5]: 2.9 nM | Ki [6]: 7 nM | Ki [7]: 13 nM | Ki (Plasmin (human) (Human)): 138 nM
Substance: hirustasin
